Experimental data published in patent US20140178935A1 (AVEO PHARMACEUTICALS, published 2014).
Substitutions are numbered along the chain they refer to.

B1: anti-hHGF monoclonal antibody 1D3 (antibody, mouse IgG1, kappa, V domains shown)
VH: EVQLVESGGGLVQPGGSLKLSCAASGFTFSDYYMSWVRQTPEKRLEWVAYISSGGGSTYYPDSVKGRFTISRDNAKNTLYLQMSSLKSEDTAIYYCVRQGDGYYGDYAMDYWGQGTSVIVSS
VL: DIQMTQSPASLSVSVGETVTITCRTSENIYSNLAWYQQKQGKSPQLLIYAATNLADGVPSRFSGSGSGTQFSLRINSLQSEDFGRYYCQHFWGTPYTFGGGTKLEIKR
notes: Murine IgG1 kappa from hybridoma
B2: anti-hHGF monoclonal antibody 1F3 (antibody, mouse IgG1, kappa, V domains shown)
VH: B1 VH with P14S, D31N, Y33F, I93M, I119T
VL: B1 VL with T25A, I48V, A50D, N53H, A55P, R74K, R85S, K103R
notes: as for B1
B3: Kappa Hu2B8_Kv1-39.1 / Heavy Hu2B8_Hv5-a.1 (antibody, human IgG1, kappa, V domains shown)
VH: EVQLVQSGAEVKKPGESLRISCKGSGYSFTTYWMHWVRQMPGKGLEWMGEINPTNGHTNYNPSFQGHVTISADKSISTAYLQWSSLKASDTAMYYCARNYVGSIFDYWGQGTLVTVSS
VL: DIQMTQSPSSLSASVGDRVTITCKASENVVSYVSWYQQKPGKAPKLLIYGASNRNTGVPSRFSGSGSGTDFTLTISSLQPEDFATYYCGQSYNYPYTFGQGTKLEIKR
notes: also called Hu2B8 Hv5-a.1 + IgG1 Constant heavy chain with Hu2B8 Kv1-39.1 + Kappa Constant light chain
B4: chimeric 2B8 (mouse variable regions with human IgG1 (G1m(17,1)) and Kappa (Km(3)) constant regions) (antibody)
heavy: not shown
light: NIVMTQSPKSMSMSVGERVTLSCKASENVVSYVSWYQQKPAQSPKLLIYGASNRNTGVPDRFTGSGSATDFTLTISSVRAEDLADYHCGQSYNYPYTFGGGTRLEIKRTVAAPSVFIFPPSDEQLKSGTASVVCLLNNFYPREAKVQWKVDNALQSGNSQESVTEQDSKDSTYSLSSTLTLSKADYEKHKVYACEVTHQGLSSPVTKSFNRGEC
notes: also called Chimeric 2B8 IgG1; Chimeric 2B8 Kappa (Km(3))
B5: Kappa Chimeric 2B8 / Heavy Hu2B8_Hv1-f.1 (antibody, human IgG1, kappa, V domains shown)
VH: EVQLVQSGAEVKKPGATVKISCKVSGYTFTTYWMHWVQQAPGKGLEWMGEINPTNGHTNYNEKFQGRVTITADTSTDTAYMELSSLRSEDTAVYYCATNYVGSIFDYWGQGTLVTVSS
VL: NIVMTQSPKSMSMSVGERVTLSCKASENVVSYVSWYQQKPAQSPKLLIYGASNRNTGVPDRFTGSGSATDFTLTISSVRAEDLADYHCGQSYNYPYTFGGGTRLEIKR
notes: also called Hu2B8 Hv1-f.1 + IgG1 Constant heavy chain with Chimeric 2B8 Kappa light chain
B6: Kappa Chimeric 2B8 / Heavy Hu2B8_Hv5-a.1 (antibody, human IgG1, kappa, V domains shown)
VH: B3 VH
VL: B5 VL
notes: also called Hu2B8 Hv5-a.1 + IgG1 Constant heavy chain with Chimeric 2B8 Kappa light chain
B7: Kappa Hu2B8_Kv1-39.1 / Heavy Hu2B8_Hv1-f.1 (antibody, human IgG1, kappa, V domains shown)
VH: B5 VH
VL: B3 VL
notes: also called Hu2B8 Hv1-f.1 + IgG1 Constant heavy chain with Hu2B8 Kv1-39.1 + Kappa Constant light chain
B8: Kappa Hu2B8_Kv3-15.1 / Heavy Hu2B8_Hv1-f.1 (antibody, human IgG1, kappa, V domains shown)
VH: B5 VH
VL: EIVMTQSPATLSVSPGERATLSCKASENVVSYVSWYQQKPGQAPRLLIYGASNRNTGIPARFSGSGSGTEFTLTISSLQSEDFAVYYCGQSYNYPYTFGQGTKLEIKR
notes: also called Hu2B8 Hv1-f.1 + IgG1 Constant heavy chain with Hu2B8 Kv3-15.1 + Kappa Constant light chain
B9: Kappa Hu2B8_Kv3-15.1 / Heavy Hu2B8_Hv5-a.1 (antibody, human IgG1, kappa, V domains shown)
VH: B3 VH
VL: B8 VL
notes: also called Hu2B8 Hv5-a.1 + IgG1 Constant heavy chain with Hu2B8 Kv3-15.1 + Kappa Constant light chain
B10: Kappa Hu2B8_Kv1-39.1 / Heavy Chimeric 2B8 (antibody, human IgG1, kappa, V domains shown)
VH: QVQLQQPGAELVKPGTSVKLSCKASGYTFTTYWMHWVNQRPGQGLEWIGEINPTNGHTNYNEKFKSKATLTVDKSSSTAYMQLSSLTSEDSAVYYCARNYVGSIFDYWGQGTTLTVSS
VL: B3 VL
notes: also called Chimeric 2B8 IgG1 heavy chain with Hu2B8 Kv1-39.1 + Kappa Constant light chain
B11: Kappa Hu2B8_Kv3-15.1 / Heavy Chimeric 2B8 (antibody, human IgG1, kappa, V domains shown)
VH: B10 VH
VL: B8 VL
notes: also called Chimeric 2B8 IgG1 heavy chain with Hu2B8 Kv3-15.1 + Kappa Constant light chain

Each binder was assayed against T1, recombinant human HGF (R&D Systems, Catalog No. 294-HGN-025) (human, UniProt P14210 32-728) (assay: cell-based or functional assay).
T1 sequence (P14210 32-728 limits assumed): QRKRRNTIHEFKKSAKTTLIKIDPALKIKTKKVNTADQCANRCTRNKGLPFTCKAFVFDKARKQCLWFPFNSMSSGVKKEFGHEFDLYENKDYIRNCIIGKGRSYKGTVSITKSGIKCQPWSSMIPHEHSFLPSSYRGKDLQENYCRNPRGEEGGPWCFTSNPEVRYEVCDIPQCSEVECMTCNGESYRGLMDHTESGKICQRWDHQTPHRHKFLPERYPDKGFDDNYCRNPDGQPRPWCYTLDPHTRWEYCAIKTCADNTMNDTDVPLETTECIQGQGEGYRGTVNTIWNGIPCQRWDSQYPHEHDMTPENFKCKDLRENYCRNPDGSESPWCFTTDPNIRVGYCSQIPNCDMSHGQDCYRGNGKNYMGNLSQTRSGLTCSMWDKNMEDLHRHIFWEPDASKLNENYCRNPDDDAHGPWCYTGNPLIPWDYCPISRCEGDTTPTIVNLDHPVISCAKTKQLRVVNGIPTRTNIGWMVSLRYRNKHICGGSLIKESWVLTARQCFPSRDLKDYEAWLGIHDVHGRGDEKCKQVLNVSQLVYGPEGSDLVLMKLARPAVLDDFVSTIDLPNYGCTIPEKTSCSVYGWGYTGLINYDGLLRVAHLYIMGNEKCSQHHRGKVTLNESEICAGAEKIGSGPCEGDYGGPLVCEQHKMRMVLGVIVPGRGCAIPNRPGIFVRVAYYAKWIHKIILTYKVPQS

| IC50, neutralization of HGF stimulated BrdU incorporation in 4 MBr-5 cells | Binder |
| --- | --- |
| 4.99 nM | B1 |
| 1.94 nM | B2 |

Biological target: T1, recombinant human HGF (R&D Systems, …)
Experiment: cell-based or functional assay
Remark: another data set of the same source

| EC50, inhibition of HGF-stimulated c-Met phosphorylation in PC-3 cells, Average of Two Trials | Binder |
| --- | --- |
| 0.984 nM | B1 |
| 1.19 nM | B2 |

Each binder was assayed against T2, recombinant mouse HGF (R&D Systems) (mouse, UniProt Q08048 33-728) (assay: SPR, antibody immobilized, HGF protein injected, 25 C).
T2 construct: Bought protein, construct not described; also called rmHGF (R&D Systems); murine HGF
T2 sequence (Q08048 33-728 limits assumed): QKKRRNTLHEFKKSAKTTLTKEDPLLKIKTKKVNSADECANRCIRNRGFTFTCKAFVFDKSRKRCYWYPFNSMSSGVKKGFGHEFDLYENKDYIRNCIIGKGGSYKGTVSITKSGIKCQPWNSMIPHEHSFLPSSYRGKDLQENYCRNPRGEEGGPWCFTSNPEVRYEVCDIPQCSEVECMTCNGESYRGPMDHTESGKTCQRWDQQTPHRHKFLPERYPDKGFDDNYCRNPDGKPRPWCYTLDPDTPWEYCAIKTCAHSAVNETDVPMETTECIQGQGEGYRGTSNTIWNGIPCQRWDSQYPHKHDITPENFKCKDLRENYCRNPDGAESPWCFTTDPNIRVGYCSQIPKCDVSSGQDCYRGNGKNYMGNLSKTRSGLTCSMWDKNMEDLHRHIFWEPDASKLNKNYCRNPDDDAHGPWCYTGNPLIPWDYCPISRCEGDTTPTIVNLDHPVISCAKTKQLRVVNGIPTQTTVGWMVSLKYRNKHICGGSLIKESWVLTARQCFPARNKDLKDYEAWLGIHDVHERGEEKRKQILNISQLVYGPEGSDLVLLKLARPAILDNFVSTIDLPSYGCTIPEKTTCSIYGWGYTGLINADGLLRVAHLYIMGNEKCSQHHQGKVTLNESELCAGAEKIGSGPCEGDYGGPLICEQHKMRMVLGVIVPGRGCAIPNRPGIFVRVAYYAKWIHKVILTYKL
Experimental: (§1) Each antibody was immobilized on a carboxymethylated dextran CM5 sensor chip (BIAcore, Catalog No. BR-1006-68) by amine coupling (BIAcore, Catalog No. BR-1000-50) using a standard coupling protocol according to manufacturer's instructions.
(§2) Analyses were performed at 25° C. using PBS (GIBCO, Catalog No. 14040-133) containing 0.05% surfactant P20 (BIAcore, Catalog No. R-1000-54), 2 mg/mL BSA (EMD, Catalog No. 2930) and 10 mg/mL CM-Dextran Sodium salt (Fluka, Catalog No. 86524) as running buffer. […] The resulting binding was determined as resonance units (RU) over baseline 30 seconds after the end of injection. […] Non-specific binding was monitored by comparing binding to a control surface where mouse IgG (Rockland, Catalog No. 010-0102) was immobilized using the same amine coupling procedure.

| binding result | Binder |
| --- | --- |
| no binding | B1 |
| binds | B2 |

Each binder was assayed against hHGF-Fc G555E (recombinant hHGF protein containing a glycine to glutamate substitution at position 555) (human) in the same assay as above.
Chain of hHGF-Fc G555E (recombinant hHGF protein containing a glycine to glutamate substitution at position 555) (human) (chain, as listed by the source G555E G555E limits assumed): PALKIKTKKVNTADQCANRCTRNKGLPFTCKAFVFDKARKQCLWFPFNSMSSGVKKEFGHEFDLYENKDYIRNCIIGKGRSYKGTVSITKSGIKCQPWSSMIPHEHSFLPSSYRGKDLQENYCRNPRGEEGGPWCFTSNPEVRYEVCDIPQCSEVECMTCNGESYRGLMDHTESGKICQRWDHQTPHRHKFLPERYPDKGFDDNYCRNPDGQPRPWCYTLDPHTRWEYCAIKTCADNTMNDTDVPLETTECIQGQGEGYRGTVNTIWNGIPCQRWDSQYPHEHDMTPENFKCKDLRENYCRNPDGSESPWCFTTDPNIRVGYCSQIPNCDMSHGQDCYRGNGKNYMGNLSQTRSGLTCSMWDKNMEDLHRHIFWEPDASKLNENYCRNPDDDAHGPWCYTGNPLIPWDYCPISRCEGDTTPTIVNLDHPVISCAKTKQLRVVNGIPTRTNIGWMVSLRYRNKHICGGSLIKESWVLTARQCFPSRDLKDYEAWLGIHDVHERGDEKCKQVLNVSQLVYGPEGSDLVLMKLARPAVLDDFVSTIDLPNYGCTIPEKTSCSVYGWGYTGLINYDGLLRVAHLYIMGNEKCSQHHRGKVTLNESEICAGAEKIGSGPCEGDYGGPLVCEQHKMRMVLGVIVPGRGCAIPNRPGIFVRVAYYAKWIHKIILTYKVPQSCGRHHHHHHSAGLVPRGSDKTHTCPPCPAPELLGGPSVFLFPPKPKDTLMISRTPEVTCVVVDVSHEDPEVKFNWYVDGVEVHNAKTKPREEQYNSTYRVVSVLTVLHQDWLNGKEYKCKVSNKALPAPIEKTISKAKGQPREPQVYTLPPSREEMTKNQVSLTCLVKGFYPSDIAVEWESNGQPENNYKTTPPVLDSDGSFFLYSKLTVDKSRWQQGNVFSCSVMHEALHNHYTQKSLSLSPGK
Experimental: as §1, §2

| binding result | Binder |
| --- | --- |
| binds | B1 |
| binds | B2 |

These binders were tested against hHGF-Fc C561R (recombinant hHGF protein containing a cysteine to arginine substitution at position 561) (human) in the same assay as above.
Chain of hHGF-Fc C561R (recombinant hHGF protein containing a cysteine to arginine substitution at position 561) (human) (chain, as listed by the source C561R C561R limits assumed): as the sequence (chain, as listed by the source G555E G555E limits assumed) above, with E501G, C507R counted along it
Experimental: as §1, §2

| binding result | Binder |
| --- | --- |
| binds | B1 |
| binds | B2 |

The binders below were run against T1, recombinant human HGF (R&D Systems, …) (assay: SPR, antibody captured by anti-mouse Ig, HGF injected, 25 C).
Experimental: (§3) Rabbit anti-mouse immunoglobulins (BIAcore, Catalog No. BR-1005-14) were immobilized on carboxymethylated dextran CM5 sensor chips (BIAcore, Catalog No. BR-1006-68) by amine coupling (BIAcore, Catalog No. BR-1000-50) using a standard coupling protocol according to manufacturer's instructions. The analyses were performed at 25° C. using PBS (GIBCO, Catalog No. 14040-133) containing 0.05% surfactant P20 (BIAcore, Catalog No. BR-1000-54), 2 mg/mL BSA (EMD, Catalog No. 2930), and 10 mg/mL CM-Dextran Sodium salt (Fluka, Catalog No. 86524) as running buffer.
(§4) The antibodies were captured in an individual flow cell at a flow rate of 10 μL/min. Injection time was variable for each antibody to yield approximately 20 RU of antibody captured for each cycle. […] The dissociation phase was monitored for 15 or 90 minutes, depending on concentration. The surface then was regenerated with 10 mM Glycine-HCl, pH 1.7 (BIAcore, Catalog No. BR-1003-54) injected for 3 minutes at a flow rate of 60 μL/min before another cycle was initiated.
Kinetic parameters were determined using the kinetic function of the BIAevalutation software with reference subtraction.

| Kd | koff | kon | Binder |
| --- | --- | --- | --- |
| 0.0542 nM | 8.2e-05 s⁻¹ | 1.7e+06 M⁻¹ s⁻¹ | B1 |
| 0.0181 nM | 2.6e-05 s⁻¹ | 1.5e+06 M⁻¹ s⁻¹ | B2 |

These binders were tested against T1, recombinant human HGF (R&D Systems, …) (assay: competition ELISA (DELFIA): antibody inhibits c-Met binding to plate-coated HGF).
Experimental: The plates then were blocked with 200 μL of 5% non-fat dry milk in PBS for 1 hour at room temperature. […] 100 μL of sample per well was transferred to the assay plate and incubated overnight at 4° C.
The resulting plates then were washed three times with PBS-0.1% Tween 20, and incubated for 1 hour at room temperature with Eu-labeled Streptavidin (Wallac, Catalog No. 1244-360) diluted 1:1000 in DELFIA assay buffer (Wallac, Catalog No. 4002-0010). The resulting plates were washed 3 times with DELFIA wash solution (Wallac, Catalog No. 4010-0010) and incubated with 100 μL/well DELFIA enhancement solution (Wallac #4001-0010) for 15 minutes at room temperature with agitation.
The plates were read on Victor³V instrument (Perkin Elmer) using the Europium method.

| IC50 | Binder |
| --- | --- |
| 4.43 nM | B1 |
| 6.57 nM | B2 |

Each binder was assayed against T1, recombinant human HGF (R&D Systems, …) (assay: SPR (BIAcore T100), antibody captured on mouse anti-human immunoglobulin CM4 chip, HGF 1.88, 3.75 and 7.5 nM injected, 25 C).
Experimental: as §3, with “Antigen-binding affinity and kinetics of interaction were assessed by surface plasmon resonance technology using a BIAcore T100 instrument. Mouse anti-human” for “Rabbit anti-mouse”, “(Jackson ImmunoResearch Labs, 209-005-098)” for “(BIAcore, Catalog No. BR-1005-14)”, “CM4” for “CM5”, “BR-1005-34)” for “BR-1006-68)”, “recommendations.” for “instructions.”, “2930)” for “2930),”
as §4, with “on” for “in an”, “2.0” for “1.7”, “BR-1003-55)” for “BR-1003-54)”, “initiated. […] Determination of kinetic parameters was achieved using the kinetic function of the BIAevalutation software with reference subtraction.” for “initiated.”

| koff | kon | Binder |
| --- | --- | --- |
| 3.8e-05 s⁻¹ | 2.6e+06 M⁻¹ s⁻¹ | B3 |
| 2.7e-05 s⁻¹ | 2.3e+06 M⁻¹ s⁻¹ | B4 |
| 0.0016 s⁻¹ | 2.4e+06 M⁻¹ s⁻¹ | B5 |
| 1.1e-05 s⁻¹ | 2.4e+06 M⁻¹ s⁻¹ | B6 |
| 0.0021 s⁻¹ | 7.1e+06 M⁻¹ s⁻¹ | B7 |
| 0.0037 s⁻¹ | 7.8e+06 M⁻¹ s⁻¹ | B8 |
| 5.9e-05 s⁻¹ | 2.2e+06 M⁻¹ s⁻¹ | B9 |
| 3.9e-05 s⁻¹ | 2.8e+06 M⁻¹ s⁻¹ | B10 |
| 1.7e-05 s⁻¹ | 3.1e+06 M⁻¹ s⁻¹ | B11 |
